Assays:
[1] = molecular target: T1, Arp2/3 complex (bovine brain) (bovine, UniProt P61157 1-418; A7MB62 1-394; Q58CQ2 1-372; Q3MHR7 1-300; Q3T035 1-178; Q148J6 …); test: ITC; ATP; high-affinity site (Kd1)
[2] = molecular target: T1, Arp2/3 complex (bovine brain); test: ITC; ATP; second, low-affinity site (Kd2)
[3] = molecular target: T1, Arp2/3 complex (bovine brain); test: ITC; ATP

B1: Hybrid_WH2_C-helix (N-WASP WH2 domain and C-helix with linker and A domain of Arpin) (other)
chain: PVSCSGRDALLDQIRQGIQLKSVADGQESTPPTPAPTSGIVGALMEVMQKRSKAIAAAEIREQGDGAEDEEWDD
Binder B1 has a Kd [1] of 36.7 nM and a Kd [2] of 826 nM.

For SWTDNIMAQKSSKGAAAEIREQGDGAEDEEWDD (domain or fragment) [Arpin_CA (Arpin residues S194-D226)], the Kd [3] was 1710 nM.
